Where two headings read alike, the source gives them in different places. One block for each binder: values may come before it.
Columns and labels:
[1] = substrate: T1, CC chemokine receptor 10 (CCR10) on L1.2 cells (human) (UniProt P46092)
T1 sequence: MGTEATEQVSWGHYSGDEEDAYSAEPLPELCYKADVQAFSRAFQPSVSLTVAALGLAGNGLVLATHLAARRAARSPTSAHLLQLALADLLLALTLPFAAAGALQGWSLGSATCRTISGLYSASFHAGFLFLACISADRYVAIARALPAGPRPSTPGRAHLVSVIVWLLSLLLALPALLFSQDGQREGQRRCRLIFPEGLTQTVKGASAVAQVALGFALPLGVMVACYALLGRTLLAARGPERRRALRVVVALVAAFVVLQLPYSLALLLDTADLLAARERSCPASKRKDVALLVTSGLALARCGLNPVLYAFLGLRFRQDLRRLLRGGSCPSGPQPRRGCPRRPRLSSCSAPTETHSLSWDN

CCR10-RlucII [2] = molecular target: T2, CCR10-RlucII (human, UniProt P46092 1-362)
T2 sequence (looked up): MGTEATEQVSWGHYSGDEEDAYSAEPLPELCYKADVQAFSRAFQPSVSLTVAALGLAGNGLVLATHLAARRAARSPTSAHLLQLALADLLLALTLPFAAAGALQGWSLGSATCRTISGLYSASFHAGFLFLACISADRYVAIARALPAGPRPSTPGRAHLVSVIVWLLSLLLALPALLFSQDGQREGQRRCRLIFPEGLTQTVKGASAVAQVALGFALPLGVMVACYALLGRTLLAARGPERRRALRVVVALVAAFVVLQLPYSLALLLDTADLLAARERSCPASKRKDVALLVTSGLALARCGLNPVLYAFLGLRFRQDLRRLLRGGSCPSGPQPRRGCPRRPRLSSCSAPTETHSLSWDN

[3] = substrate: T1, ; remark: listed apart in the source
CCR10-RlucII [4] = molecular target: T2, CCR10-RlucII; test: cell-based or functional assay
[5] = substrate: T1, ; remark: listed apart in the source

B3: F1A-CCL27 (ligand)
chain: ALLPPSTACCTQLYRKPLSDKLLRKVIQVELQEADGDCHLQAFVLHLAQRSICIHPQNPSLSQWFEHQERKLHGTLPKLNFGMLRKMG
migration of L1.2/CCR10 cells, dose-response (0.1 nM to 1 μM), reduction in efficacy relative to WT CCL27 [5]: 35%
migration of L1.2/CCR10 cells, dose-response (0.1 nM to 1 μM), reduction in potency relative to WT CCL27 [5]: 10 fold
transwell migration of L1.2/CCR10 cells at 50 nM chemokine, reduction compared to WT CCL27 [5]: 85%

B4: CCL27 (ligand)
chain: FLLPPSTACCTQLYRKPLSDKLLRKVIQVELQEADGDCHLQAFVLHLAQRSICIHPQNPSLSQWFEHQERKLHGTLPKLNFGMLRKMG
β-arrestin2 recruitment to CCR10-RlucII by BRET in HEK293 cells, EC50 of the chemokine (CCR10-RlucII [4]): 89 nM

The next lines start with the values.

bare filter chemotaxis of L1.2/CCR10 cells, efficacy relative to WT CCL27 [1]: 1.1 fold
bare filter chemotaxis of L1.2/CCR10 cells, potency relative to WT CCL27 [1]: 10 fold
transendothelial migration of L1.2/CCR10 cells, efficacy relative to WT CCL27 [1]: 2.7 fold
transendothelial migration of L1.2/CCR10 cells, potency relative to WT CCL27 [1]: 3 fold
β-arrestin2 recruitment to CCR10-RlucII by BRET in HEK293 cells, EC50 of the chemokine (CCR10-RlucII [2]): 19 nM
β-arrestin2 recruitment to CCR10-RlucII by BRET in HEK293 cells, Emax relative to WT-CCL27 (CCR10-RlucII [2]): 1.8 fold
internalization of CCR10 on L1.2/CCR10 cells (3.1-100 nM chemokine, 45 min, 37 °C), percent of receptor remaining on the surface at 3.1 nM [3]: 30%
B1: F-CCL27 (ligand)
chain: FFLLPPSTACCTQLYRKPLSDKLLRKVIQVELQEADGDCHLQAFVLHLAQRSICIHPQNPSLSQWFEHQERKLHGTLPKLNFGMLRKMG

β-arrestin2 recruitment to CCR10-RlucII by BRET in HEK293 cells, efficacy relative to WT CCL27 (CCR10-RlucII [4]): 1.5 fold
β-arrestin2 recruitment to CCR10-RlucII by BRET in HEK293 cells, potency relative to WT CCL27 (CCR10-RlucII [4]): 3.5 fold
B2: NT28-CCL27 (ligand)
chain: ILPIASSCCTQLYRKPLSDKLLRKVIQVELQEADGDCHLQAFVLHLAQRSICIHPQNPSLSQWFEHQERKLHGTLPKLNFGMLRKMG

— publication PMC12556802, “Rules of engagement: Determinants of chemokine receptor activation and selectivity by CCL27 and CCL28” (The Journal of Biological Chemistry, 2025)
